Results from the nanobody polyreactivity screen of Harvey et al. (2022).

assay: yeast display, Sf9 membrane polyspecificity reagent, FACS + sequencing; frameworks hold sequencing errors
Method in brief: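 In a synthetic yeast display library (Saccharomyces cerevisiae BJ5465), nanobody expression was induced with galactose for 36–48 hours. FACS gates were set low and high (top ~1%) using anti-HA fluorescence for expression and streptavidin fluorescence for binding of the Sf9 membrane reagent. Each polyreactivity label is drawn from the gate of origin.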

| Sequence | polyreactivity (PSR sort gate) |
| --- | --- |
| QVQLVESGGGLVQAGGSLRLSCAASGLTFYLYAMGWYRQAPGKERELVAAISRSGGSTYYADSVKGRFTISRDNAKNTVYVQMYSLKPEDTAVYYCAAVTYYPEIRKYYDWRQGTQVTVSS | high polyreactivity |
| QVQLVESGGGLVQAGGSLRLSCAASGGTFSPYDMGWYRQAPGKERELVASITGSGGSTYYADSVKGRFTISRGNAKNTVYLQMNSLKPEDTAVYYCAAQGYWTYWPYLLRLYDYWGQGTQVTVSS | low polyreactivity |
| QVQLVESGGGLVQAGGSLRLSCAASGRTFEQYAMVWYRQAPGKERELVAAISGSGGSTFYADSVKGRFTISRDNAKNTVYLQMNSLKPEDTAVYYCNAPGDGYLYDHTYDYGGQGTQVTVSS | low polyreactivity |
| QVQLVESGGGLVQAGGSLRLSCAASGSTFYIYAMGWYRQAPGKERELVARISGSGGSTYYSDSVKGRFTISRDNSKNTVYLQMNSLKPEVTAVYYCAADDIYKYYQYYAFPYYRYDYWGQGTQVTVSS | low polyreactivity |
| QVQLVESGGGLVQAGGSLRLSCAASGIIIRKYAMGWYRQAPGKERELVAAITTRGSRTYYADSVKGRFTISRDNAKNTVYLQMNSLKPEDTAVYYCAGDRYTVRMDYWGQGTQVTVSS | high polyreactivity |
| QVQLVESGGGLVQAGGRLRLSCAASGIIFDTYVMGWYRQAPGKERELVAAITRSGGRTRYADSVKGRFTISRDNAKNTVYLQMNSLKPEDTAVYYCAARIPDRQDGYGYWGQGTQVTVSS | high polyreactivity |
| QDQHVESGGGLVQAGGSLRLSCDASGFIFPYYVMGWYRQAPGKERELVAGISSGGRTNYADSVKGRFTISRDNAKNTVYLQMISLKPEDTAVYYCNDRWYRYPPRVRLYYWGQGTQVTVSS | high polyreactivity |
| QVRLQESGGGLVQAGGSLRLSCAASGSISLTYYMDWSRQAPCTVREFVATITAGATTNYADSVKGRFTISRDNAKNTVYPQMNSLKPEDTEVYYSAVRAEHQVTLIYLGQGTQVTVSS | low polyreactivity |
| QVQLVESGGGLVQAGGSLRLSCAASGFTFNYNTMGWYRPAPGKERELVARISRSGGRTYYADSVKGRFTISRDNAKNTVYLQMNSLKPEDTAVYYCNTDYYGVRHRYDYWGQGTQVTVSS | high polyreactivity |
| QVQIVESGRGLVQAGGSLRLTCAASGINFHFNDMGWYRQAPRKQRELVAAIDSTGSTNYADSVKGRFTISRDNAKNTVYLQMNSLKPEDTAVYYCAVLNHRVDSVLTRYYYWGQGTQVTVSS | low polyreactivity |
| QVQLVESGGGLVQAGGSLRLSCAASGSIFDYNAMGWNRQAPGKETELVAAITSTDSTYADSVKGRFTISRDNAKNTVYLQMNSLKPEDTAVYYCAAEDVIYYLTGQWREYDYWGQGTQVNVSS | low polyreactivity |
| QVQLVESGRGLVQEGGSLRLSCAASGRNVVFYTMGWNRQEPVKERELVATISIRGSTYYADSVKGRFTISRDNAKNTVYLKMNSLKPEDTAVYYCAAVYYSYYSFSYNYWGQGTVVTVSS | low polyreactivity |
| QVQLVESGGGLVQAGGGLRLSCAASGTFKRNAMGWYRQAPGKERELVATITRTGSTTYADSVKGRFTISRDNAMNTVYLQMYSQKPEDTAVYYCAAGYPPEDPEDYWGQGTQVTVSS | low polyreactivity |
| QVQLVESGGGLVQAGGSLRLSCAASGRTFPTNAMGWYRQAPGKERELVARISTRGGSTYYADSVKGRFTISRDNAKNTVYLQMNSLKPEDTAVYYCAARYQGNYRTDKYDYWGQGTQVTVSS | high polyreactivity |
| QVQLVESGGGLVQAGGSLRLSCAASGFTFYTYAMGWYRQAPGKERELVAAITGSGGRTYYADSVKGRFTISRDNAKNTVYLQMNSLKPEDTAVYYCAALYVYRPRTPYGYWGQGTQVTVSS | high polyreactivity |
| QVQLVESGGGLVQAGGSLRLSCAASGIIFYGYAMGRYRQAPGKERELVAAITSSGRTYYADSVKGRFTISRDNAKNTVYLQMNSLKPEDTAVYFCNVLLQRVYGTAPSFDYWGQGTQVTVSS | high polyreactivity |
| QVQLVESGGGLVQAGGSLRLSCAASGRIFRGYAMGWYRPAPGKERELVAAIDTDTGITYYADSVKGRFTISRVNAKNTVNLQMNSLKPEDTAVYYCAAETYYAVSTGYYFDYWGQGTQVTVSS | high polyreactivity |
| QDQLVESRGGLVQAGGSLRLSCAASGLIFWRYTMGWYSQAPGKERELVAAINRSGGSTYYADSVKGRFTISRDNAKNTVYFQMNSLKPDDPAVYYCAASGYRYPIDGDYWGLGTQVTVSS | high polyreactivity |
| QVQLVESGGGLVQAGGSLRLSCAASGRTFLAYAMGWYRQAPGKERELVAAISKSGGRTYYADSVKGRFTISRDNAKNTVYLQMNSLKPEDTAVYYCAADKQAYVTDDYWGQGTQVTVSS | high polyreactivity |
| QVQLVESGGGLVQAGGSLRLSCAASGFIIWYSAMGWYRQAPGKERELVAAIRSGGSTYYADSVKGRFTISRDNAMNTVYLQMNSLKPEDTAVYYCAAGKNVYYFSRSKYGYDYWGQGTQVTVSS | high polyreactivity |
| QVQLVESGGGLVQAGGSLRLSCAASGSTFAYNAMGWYRQAPGKERELVAAISSSGTSTYYADSVKGRFTISRDYAKNTVYLQMNSLKTEDTAVYYCAARSAILKSGYLMDYWGQGTQVTVSS | low polyreactivity |

| Sequence | polyreactivity (PSR sort gate) |
| --- | --- |
| QVQLVESGGGLVQAGGSLRLSCAASGFTFEENAMGWYRQAPGINYSGASTYYADSVKGRFTISRDKAKNTVYLQMNSLKPDDTAVYYCAADVVAQMNYWGQGTQVTVSS | low polyreactivity |
| QVQLVESGGGLVQAGGSLRLSCAASGSTFYRYAMGWYRQAPGKERELVAVITSGGSTNYADSVKGRFTISRDNAKNTVYLQMNSLKPEDTAVYYCAKEDGYSQLKTTFDEAGYGSWGQGTQVTVSS | low polyreactivity |
| QVQLVESGGGLVQAGGSLRLSCAASGSIFGGYAMGWYRQAPGKERELVAAISYRGASTYYADSVKGRFTISRDNAKNTVYLQMNSLKPEDTAVYYCAVAARTRARVLYGYDYWGQGSQVTVSS | low polyreactivity |
| QVQLVESGGGLVQAGGSLRLSCAASGRTFSWNTMGWYRQAPGKERELVAAITRVGTTYYADSVKGRFTISRDNAKNTVYLQMNSLKPEDTGVYYCNARKVRYPYRWYDYWGQGTQVTVSS | high polyreactivity |
| QVQQQESGGGLVQACGSLPLSCAASVSIFTQATMGWYRQPPGKERELVAAINFGSSTYYADSVKGRFTISRDNAKSTVYLQMNSLKPEDTSVYYCAVRALWYDLHDYWGQGTQVTVSS | high polyreactivity |
| EVQLVESGGGLVQAGGSLRLSCAASVSTFGSNAMGWYRQAPGKERELVAAITNGGSTNYADSVKGRFTISRDNEKNTVYLQMNSLKPEDTAVYYCNAVQSAYNKFWIALWGGYWGQGTQVTVSS | low polyreactivity |
| QVQLVESGGGLVQAGGRLRLSCAASGFTFYWNAMGWYRQAPGKERELVAAINWRGTSTYYADSVKGRFTISRDNAKNTVYLQMNSLKPEDTAVDYCNTYVYVEYDWGQGTQVTVSS | high polyreactivity |
| QVQLVESGGGLVQAGGSLRLSCAASGRIFHSNTKGWYRQAPGKERELVARISSVGSTNYADSVKGRFTISRDNAKNTVYLQMNSQKPEDTAVYYCAAQRYYTQSSYYLALYDFWGQGTQVTVSS | low polyreactivity |
| QVQLVESGGGLVQAGGSLRLSCAASGFIFDPYAMGWYRPAPGKERELVAVITYSAGSTYADSVNGRFTISRDNAKNTVYLQMNSLKPEDTAVYYCAKRWWYNVPLGVLYDYWGQGTQVTVSS | low polyreactivity |
| QVQLVESGGGLVQAGGSLRLSCAASGIIFLDYVMGWYRQAPGKERELVAAINSGGSTYYADSVKGRFTISRANAKNNVYLQMNSLKPEDSAVYYCNAVFYDDWQIYDYWGQGTQVTVSS | low polyreactivity |
| QVQLVESGGGLGQAGGSLRLSCAASGFTYYYYAMGWYIQAPRKDRELVAAISGGGGSTYYADSVKGRFTLSRDNAKNTVYLQMNSLKQVDTAVYYCAAVGSWRYYYDYDYWGQGTQVNVSS | high polyreactivity |
| QVQLVESGGGLVQAGGSLRLSCDASGRIFSRYAIGWYRQAPGKERELVAAITQSGTSTYYADSVKGRFTISRDNAKNTVYLQMNSLNPEDTAVYYCNAYRQYRYDYWGQGTQVTVSS | low polyreactivity |
| QVQLVESGGGLVQAGGSLRLSCAASGFNFPGNAIGWYTPAPGKERELVATISSGGSTKYADSVKGRFTISRDNAKNTVYLQMNSLKPEDTAVYYFAARVYLGVFDYYYWGQGTQVTVSS | low polyreactivity |
| QVQLVESGGGLVQAGGSLRLSCAASGSYLRYYAMGWYRQAPGKERELVAAISRSGTNTYYADSVKGRFTISRDNAKNTVYLQMNSLKPEDTAVYYCAARSWKRRVGRDYWGQGTQVTVSS | high polyreactivity |
| QVQLVSSGGRLVQSGGSLRLSCAASGRTFYPYAMGWYRQAPGKERELVAGIRNSGTSTYYADSVKGRFTISRDNAKNTVYLQMNSLKPEVTAVYYCNARGYRNRGYGYDSWGQGTQVTVSS | high polyreactivity |
| QVQLVESGGGLVQAGGSLRLSCAASGRISVANAMGWYIQAPGKERELVARISEGVGSTYYADSVKGRFTISRDTAKNTVYLQMNSLKPEDTAVYYCAAYQDYVYSESLFSVSARMYYWGQGTQVTVSS | low polyreactivity |
| QVQLVESGGGLVQAGGSLRLSCAASGSTFDFNAMGWYRQAPRKERELVASISWDTGGTYADSVKGRFTISRDNAKNSFYLQMNSLKTEDTAVYFCAARPDYFIFDYWGQGTQVTVSS | low polyreactivity |
| QVQLVESGGGLVQAGGSLRLSCAASARIFVINAMGWYRQAPGKERELVADITWSGGSTYADSVKGRFTISRDNAKNTVYLQMYSLKPEDTAVYYCAAVTFVPRSTNGISLYDYWGQGTQVTVSS | high polyreactivity |
| QVQLVESGVGLVQAGGSLRLTCAASGRIFDYYAMGWSRQAPGKETELVARISRGATTNYADSVKGRFTISRDNAKNTVYLQINSLKPEDTAVYSCNARQYLAYVSWKGMGFWGQGTQVTVSS | high polyreactivity |
| QVQLVESGGGLVQAGGSLRLSCAASGRIFSRYVMGWYRQAPGKERELVAAISGRATSTYYADSVKGRFTISRDNAKNTVYLQMNSLKPEDTAVYYCATGYKTYAVTLYDYWGQGTQVTVSS | high polyreactivity |
